Biological target: T1, Human TIGIT extracellular domain, C-terminal hexahistidine and AviTag (human), Q495A1
T1 chain: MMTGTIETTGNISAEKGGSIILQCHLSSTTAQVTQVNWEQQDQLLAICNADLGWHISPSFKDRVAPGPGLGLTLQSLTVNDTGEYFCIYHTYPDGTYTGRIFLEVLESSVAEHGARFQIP
Experiment: SEC-MALS
Conditions: remark: other sources report otherwise

stoichiometry N: 1
B1: Human CD112 extracellular domain, C-terminal hexahistidine, Q92692 32-360 (ligand)
chain: QDVRVQVLPEVRGQLGGTVELPCHLLPPVPGLYISLVTWQRPDAPANHQNVAAFHPKMGPSFPSPKPGSERLSFVSAKQSTGQDTEAELQDATLALHGLTVEDEGNYTCEFATFPKGSVRGMTWLRVIAKPKNQAEAQKVTFSQDPTTVALCISKEGRPPARISWLSSLDWEAKETQVSGTLAGTVTVTSRFTLVPSGRADGVTVTCKVEHESFEEPALIPVTLSVRYPPEVSISGYDDNWYLGRTDATLSCDVRSNPEPTGYDWSTTSGTFPTSAVAQGSQLVIHAVDSLFNTTFVCTVTNAVGMGRAEQVIFVRETPNTAGAGATGG
modifications: here or on the partner: biotin on the BirA biotinylation tag (BLI and ProteOn SPR)

— publication PMC10486284
